From patent US20210253718A1 (MODMAB THERAPEUTICS, published 2021) come the findings set out here.

For experiment [1], the target named is T1, FZD1 cysteine-rich domain (CRD), MYC-tagged and GPI-anchored on CHO cells (human). Description: flow cytometry, CHO-CRD cells.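 Further: flow cytometry of Fab binding to CHO cells overexpressing a Frizzled CRD, with binding defined as median fluorescence over twice that of CHO cells lacking any Frizzled CRD.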
Description: (§1) Binding was measured via flow cytometry analysis of CHO cells overexpressing CRD of FZD1, FZD2, FZD3, FZD4, FZD5, FZD6, FZD7, FZD8, FZD9 or FZD10. Median fluorescence values are shown.
Experiment [2] concerns the target T2, FZD2 cysteine-rich domain (CRD), MYC-tagged and GPI-anchored on CHO cells (human, UniProt Q14332 35-161). Kind of experiment: flow cytometry, CHO-CRD cells.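 Further: flow cytometry of Fab binding to CHO cells overexpressing a Frizzled CRD, with binding defined as median fluorescence over twice that of CHO cells lacking any Frizzled CRD.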 In general terms: Flow cytometry measures light scatter and fluorescence of single cells or particles in a stream.
Description: as §1
In experiment [3] the target is T3, FZD3 cysteine-rich domain (CRD), MYC-tagged and GPI-anchored on CHO cells (human, UniProt Q9NPG1 24-150, GPI anchor).
T3 construct: domain: cysteine-rich domain (CRD); also called FZD3 CRD; CHO-myc-FZDGPI; not shown: MYC tag and GPI anchor signal
T3 sequence (looked up): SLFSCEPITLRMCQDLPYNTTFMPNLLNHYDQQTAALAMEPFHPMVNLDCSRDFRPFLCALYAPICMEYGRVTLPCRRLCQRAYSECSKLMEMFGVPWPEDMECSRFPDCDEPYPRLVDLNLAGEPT
Kind of experiment: flow cytometry, CHO-CRD cells.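 Further: flow cytometry of Fab binding to CHO cells overexpressing a Frizzled CRD, with binding defined as median fluorescence over twice that of CHO cells lacking any Frizzled CRD.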

For experiment [4], the target named is T4, FZD4 cysteine-rich domain (CRD), MYC-tagged and GPI-anchored on CHO cells (human, UniProt Q9ULV1 42-167, GPI anchor).
T4 construct: also called FZD4 CRD; CHO-myc-FZDGPI; not shown: MYC tag and GPI anchor signal
T4 sequence: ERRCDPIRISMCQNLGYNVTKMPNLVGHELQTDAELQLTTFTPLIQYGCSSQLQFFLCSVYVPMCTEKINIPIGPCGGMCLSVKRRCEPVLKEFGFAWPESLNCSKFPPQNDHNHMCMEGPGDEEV
Description: flow cytometry, CHO-CRD cells.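 Further: flow cytometry of Fab binding to CHO cells overexpressing a Frizzled CRD, with binding defined as median fluorescence over twice that of CHO cells lacking any Frizzled CRD.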

Experiment [5] addresses T5, FZD5 cysteine-rich domain (CRD), MYC-tagged and GPI-anchored on CHO cells (human, UniProt Q13467 29-156, GPI anchor).
T5 construct: also called FZD5 CRD; CHO-myc-FZDGPI; not shown: MYC tag and GPI anchor signal
T5 sequence: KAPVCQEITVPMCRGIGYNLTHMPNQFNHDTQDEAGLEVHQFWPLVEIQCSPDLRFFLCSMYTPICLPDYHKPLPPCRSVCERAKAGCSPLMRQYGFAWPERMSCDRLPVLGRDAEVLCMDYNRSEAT
Kind of experiment: flow cytometry, CHO-CRD cells.

Experiment [6] deals with T6, FZD6 cysteine-rich domain (CRD), MYC-tagged and GPI-anchored on CHO cells (human, UniProt O60353 20-146, GPI anchor).
T6 construct: also called FZD6 CRD; CHO-myc-FZDGPI; not shown: MYC tag and GPI anchor signal
T6 sequence: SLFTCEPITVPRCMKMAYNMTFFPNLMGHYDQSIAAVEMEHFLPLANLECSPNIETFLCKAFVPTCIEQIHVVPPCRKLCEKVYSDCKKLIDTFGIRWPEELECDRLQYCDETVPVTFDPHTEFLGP
Description: flow cytometry, CHO-CRD cells.

The target of experiment [7] is T7, FZD7 cysteine-rich domain (CRD), MYC-tagged and GPI-anchored on CHO cells (human, UniProt O75084 45-169). Kind of experiment: flow cytometry, CHO-CRD cells.
Description: as §1
Experiment [8] addresses T8, FZD8 cysteine-rich domain (CRD), MYC-tagged and GPI-anchored on CHO cells (human, UniProt Q498S8 31-155 (rat entry), GPI anchor).
T8 construct: also called FZD8 CRD; CHO-myc-FZDGPI; not shown: MYC tag and GPI anchor signal
T8 sequence: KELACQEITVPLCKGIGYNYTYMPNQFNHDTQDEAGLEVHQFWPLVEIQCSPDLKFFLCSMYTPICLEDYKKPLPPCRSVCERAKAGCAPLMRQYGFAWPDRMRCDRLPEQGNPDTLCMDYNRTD
Kind of experiment: flow cytometry, CHO-CRD cells.

For experiment [9], the target named is T9, FZD9 cysteine-rich domain (CRD), MYC-tagged and GPI-anchored on CHO cells (human, UniProt O00144 35-161, GPI anchor).
T9 construct: also called FZD9 CRD; CHO-myc-FZDGPI; not shown: MYC tag and GPI anchor signal
T9 sequence: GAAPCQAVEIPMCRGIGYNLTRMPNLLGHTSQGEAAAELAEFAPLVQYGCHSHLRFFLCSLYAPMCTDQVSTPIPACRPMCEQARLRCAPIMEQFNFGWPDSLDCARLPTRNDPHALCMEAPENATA
Description: flow cytometry, CHO-CRD cells.

Experiment [10] has as its target T10, FZD10 cysteine-rich domain (CRD), MYC-tagged and GPI-anchored on CHO cells (human, UniProt Q9ULW2 30-156, GPI anchor).
T10 construct: also called FZD10 CRD; CHO-myc-FZDGPI; not shown: MYC tag and GPI anchor signal
T10 sequence: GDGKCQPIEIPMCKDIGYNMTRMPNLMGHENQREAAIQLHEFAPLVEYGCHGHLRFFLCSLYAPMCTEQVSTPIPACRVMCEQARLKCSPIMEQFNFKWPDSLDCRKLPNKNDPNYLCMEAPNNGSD
Description: flow cytometry, CHO-CRD cells.

Experiment [11] deals with T1, FZD1 cysteine-rich domain (CRD), …. Description: flow cytometry on CHO-GPI cells over-expressing the Frizzled CRD.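 Further: binding of recombinant anti-Frizzled Fabs to the cells, read as fold mean fluorescence intensity above secondary-antibody-only background and normalized to control CHO-GPI cells.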
Description: (§2) Specificity profiling of the Frizzled profiler Fabs by flow cytometry in CHO-GPI cells over-expressing CRDs of FZD1, FZD2, FZD3, FZD4, FZD5, FZD6, FZD7, FZD8, FZD9 or FZD10. Numerical values indicate a fold-increase in mean fluorescence intensity of the reacting Fab over the background (secondary antibody alone) normalized to the control (C, CHO-GPI).
(§3) To characterize the binding specificity of these Fabs on cells, a panel of 10 CHO cell lines was generated, each expressing the CRD domain of a different myc-tagged Frizzled family member anchored at the plasma membrane through a GPI anchor (CHO-myc-FZDGPI).
Experiment [12] has as its target T2, FZD2 cysteine-rich domain (CRD), …. Described as above.
Description: as §2, §3
Experiment [13] addresses T3, FZD3 cysteine-rich domain (CRD), …. The experiment is described as above.
Description: as §2, §3
For experiment [14], the target named is T4, FZD4 cysteine-rich domain (CRD), …. Described as above.
Description: as §2, §3
The target of experiment [15] is T5, FZD5 cysteine-rich domain (CRD), …. Described as above.
Description: as §2, §3
Experiment [16] has as its target T6, FZD6 cysteine-rich domain (CRD), …. The experiment is described as above.
Description: as §2, §3
Experiment [17] has as its target T7, FZD7 cysteine-rich domain (CRD), …. The description is as above.
Description: as §2, §3
Experiment [18] deals with T8, FZD8 cysteine-rich domain (CRD), …. The experiment is described as above.
Description: as §2, §3
Experiment [19] deals with T9, FZD9 cysteine-rich domain (CRD), …. The description is as above.
Description: as §2, §3
The target in experiment [20] is T10, FZD10 cysteine-rich domain (CRD), …. Described as above.
Description: as §2, §3
Experiment [21] concerns the target T3, FZD3 cysteine-rich domain (CRD), …. Description: immunofluorescence, CHO-CRD cells.
In experiment [22] the target is T4, FZD4 cysteine-rich domain (CRD), …. Kind of experiment: immunofluorescence, CHO-CRD cells.
Experiment [23] deals with T6, FZD6 cysteine-rich domain (CRD), …. Description: immunofluorescence, CHO-CRD cells.
Experiment [24] has as its target T8, FZD8 cysteine-rich domain (CRD), …. Kind of experiment: immunofluorescence, CHO-CRD cells.
Experiment [25] addresses T9, FZD9 cysteine-rich domain (CRD), …. Kind of experiment: immunofluorescence, CHO-CRD cells.
The target of experiment [26] is T10, FZD10 cysteine-rich domain (CRD), …. Kind of experiment: immunofluorescence, CHO-CRD cells.

Substitutions are numbered along the chain they refer to.

B1: Fab-2921 (Fab, V domains shown)
VH: EVQLVESGGGLVQPGGSLRLSCAASGFNISYYYIHWVRQAPGKGLEWVASIYPSSGSTSYADSVKGRFTISADTSKNTAYLQMNSLRAEDTAVYYCARGAMDYWGQGTLVTVSS
VL: DIQMTQSPSSLSASVGDRVTITCRASQSVSSAVAWYQQKPGKAPKLLIYSASSLYSGVPSRFSGSRSGTDFTLTISSLQPEDFATYYCQQWYAGSLITFGQGTKVEIK
notes: Fab
For the molecule B1, the median fluorescence in [1] worked out at 4.53; in experiment [2] it was 4.37; in experiment [3], 3.59; in [4], 4.1; in experiment [5] it was 29.4; in experiment [6], 2.67. For the same molecule, the median fluorescence in experiment [7] worked out at 4.37; in [8], 6.98; in experiment [9], 2.94; in experiment [10], 2.48. Also, the binding result in [11], in experiment [12], in experiment [13], in experiment [14], in experiment [16] and in [17] was “no binding (tested: 200 nM)” in each case. The binding result in experiment [19] and in experiment [20] was “no binding (tested: 200 nM)” throughout. Besides, the “fold-increase in mean fluorescence intensity over background (secondary antibody alone), normalized to control CHO-GPI” value in experiment [15] was 14 fold; in [18], 6.8 fold.

B2: Fab-2908 (Fab, V domains shown)
VH: EVQLVESGGGLVQPGGSLRLSCAASGFNFSSSSIHWVRQAPGKGLEWVAYIYPSYSYTYYADSVKGRFTISADTSKNTAYLQMNSLRAEDTAVYYCARAYYGHFHAMDYWGQGTLVTVSS
VL: DIQMTQSPSSLSASVGDRVTITCRASQSVSSAVAWYQQKPGKAPKLLIYSASSLYSGVPSRFSGSRSGTDFTLTISSLQPEDFATYYCQQSSYSLITFGQGTKVEIK
notes: Fab; also called Fv-2908
For B2, the median fluorescence was 3.22 in [3]; 4.57 in [4]; 25.5 in [5]; 2.89 in experiment [6]; 5.52 in experiment [8]; 3.13 in [9]. The molecule further had a median fluorescence in [10] of 3.08. Further, the binding result in [21], in experiment [22], in [23], in experiment [24], in experiment [25] and in experiment [26] was “no binding” in each case.

B3: Fab-2911 (Fab, V domains shown)
VH: EVQLVESGGGLVQPGGSLRLSCAASGFNIYYSSMHWVRQAPGKGLEWVAYIYPYSGYTSYADSVKGRFTISADTSKNTAYLQMNSLRAEDTAVYYCARYFWWYGFDYWGQGTLVTVSS
VL: B2 VL with S91G, S92P, Y93W, S94Y, L95P, I96F
notes: Fab; also called Fv-2911
Turning to B3, the median fluorescence is 38.2 in experiment [1]; 22.7 in experiment [2]; 4.96 in experiment [3]; 6.21 in experiment [4]; 20.5 in [5]; 3.68 in [6]. The median fluorescence was found to be 43.3 in experiment [7], 7.43 in experiment [8], 4.1 in experiment [9] and 3.96 in experiment [10]. The binding result in experiment [21], in experiment [22], in [23], in experiment [24], in experiment [25] and in experiment [26] was “no binding” throughout.
